This note sets out measurements from patent US20240043504A1.

The target of assay [1] is T1, SARS-CoV-2 Spike Protein (RBD)(R319-F541).mmH (SARS-CoV-2). Kind of assay: Luminex bead binding, supernatant. Conditions: remark: other sources report otherwise.
Assay [2] deals with T1, SARS-CoV-2 Spike Protein …. As to the kind of experiment: Luminex bead binding, supernatant. Conditions: remark: other sources report otherwise. This is another data set of the same source.

Where a chain is given by its changes, count along the chain named.

B1: mAb11006 (antibody, V domains shown)
VH: EVQLVESGGGLVQPGGSLRLSCAASGFIVSRNYMSWVRQAPGKGLEWVSVIYSGGSTFYADSVKGRFTISRHNSKNTLYLQMNSLKAEDTAVYYCARELRGYFDYWGQGTLVTVSS
VL: DIQLTQSPSFLSASVGDRVTITCWASQGISSYLAWYQQKPGKAPKLLIYAASTLQSGVPSRFSGSGSGTEFTLTISSLQPEDFATYYCQLLNSYPYTFGQGTKLEIK
Consider B1, for which the values for the Binding signal (MFI) in assay [1] and in assay [2] were 5130 MFI and 4740 MFI, respectively.

B2: mAb11008 (antibody, V domains shown)
VH: EVQLVESGGGLVQPGGSLRLSCAASGFTVSSNYMTWVRQAPGKGLEWVSVIYSGGSTFYADSVKGRFTISRHNSENTLYLQMNSLRAEDTAVYYCARDLAAAGTDYWGQGALVTVSS
VL: B1 VL with E81D, L90H, P95L
With B2, the Binding signal (MFI) in assay [1] came to 4050 MFI; in assay [2] it was 3180 MFI.

B3: mAb10998 (antibody, V domains shown)
VH: EVQLVESGGGLVHPGGSLRLSCAASGLTVSSNYMSWVRQAPGKGLEWVSVIYSGGSTYYADSVKGRFTISRHNSKNTLFLQMNSLRAEDTAVYYCARDRPITGTTLDVWGQGTTVTVSS
VL: DIQMTQSPSSLFASVGDRVTITCRASQSISSYLNWYQQKPGKAPKLLIYAASSLQSGVPSRFSGSGSGTDFTLTISSLQPEDFAFYYCQQTYSTPPITFGQGTRLEIK
Take B3: the results for the Binding signal (MFI) in assay [1] and in assay [2] were 1850 MFI and 3840 MFI, respectively.

B4: mAb11004 (antibody, V domains shown)
VH: QVQLVESGGGVVQPGRSLRLSCVASGFTFSIYGMDWVRQAPGKGLEWVAVISYDGSNKYYADSVKGRFTISRDNSKNTLYLQMNSLRPEDTAVYYCAKDREAAADAFDIWGQGTMVTVSS
VL: DIQMTQSPSSVSASVGDRVTITCRASQGISSWLAWYQQKPGKAPKLLIYAASSLHSGVPSRFSGSGSGTDFTLTISSLQPEDFATYYCQQANSFRLTFGGGTKVEIK
B4: the Binding signal (MFI) in assay [1] amounted to 3350 MFI; in assay [2] it was 11300 MFI.
